Measurements: publication PMC3469515 (Molecular Biology of the Cell, 2012)

Target: the molecule itself
Experiment: AUC

B1: Mid1p construct M1-14 (residues 1–578) (domain or fragment, S. pombe, UniProt P78953 1-578, looked up)
chain: MKEQEFSYREAKDVSLDSKGLENSFLSSPNREKTPLFFEGNSNETSGYDQTKNFTHGDGDMSLGNLSELNVATDLLESLDLRSMYMHGYGHLDSSFSSQHSPDNRKRMSSTSVFKRINSEEEGRIPSLTYSAGTMNSTSSSTASLKGADIVADYETFNPDQNLAELSFDRSKSSRKRAVEVAEFSRAKTMSPLEYTVQHPYQSHNELSTNPARARAGSVPNLARIPSDVKPVPPAHLSASSTVGPRILPSLPKDTTEDNPALERVETTASLDMDYKPLEPLAPIQEAPVEDTSEPFSSVPEATLDDSDISTESLRKKVLAKMEAKRISSGSSYASTLRKVYDFSELSLPTNGKDYDELYLQSSRNSEPEISTIINDSLQQENMDEDISATSIPKSQAAYGHGSVTYHEVPRYNLTSASVGYSISSQRGRIKSSSTIDNLSAILSSEDLRHPSMQPVPGTKRTYSNYCENEPNKSSQSLVSSESHNVEGWNYSETGTVGFYDPSAEISASIDELRQSTPVARDSELLSRAHSFDLNRLDLPSQDKSTSYEVPNGTENQSPRPVTSLGFVNETFFEEKPK
With B1 the “stoichiometry N” value was > 8.
